Assay results: patent US20100144645A1, “COMPOSITIONS AND METHODS FOR ENHANCING […] POTENCY OF […]-COMPOUNDS, A[…] ADVERSE SIDE EFFECTS, AND […] ABUSE” (SHIRE LLC, priority 2006, published 2010)
Structures can show the parent of a compound that is named as a salt. Residues, ends and D or L forms follow the SMILES beside them. *: point of attachment. X4 = CC(=O)Oc1ccc2c3c1OC1C(O*)=CCC4[C@@H](C2)N(C)CC[C@]314; X2 = CN1CC[C@]23c4c5ccc(O)c4O[C@H]2C(O*)=CC[C@H]3[C@H]1C5; X1 = COc1ccc2c3c1OC1C(O*)=CCC4[C@@H](C2)N(C)CC[C@]314; X3 = CN1CC[C@]23c4c5ccc(O)c4OC2C(O*)=CCC3[C@H]1C5

Columns and labels:
[1] = Oral bioavailability of hydromorphone conjugates; details: rats; for Oral AUC %: corrected value calculated based on the bioavailability of the control (HM); for Oral Cmax %: corrected value calculated based on the control (HM)
[2] = Intranasal bioavailability of hydromorphone conjugates; details: rats; for IN AUC %: corrected value calculated based on the bioavailability of the control (HM); for IN Cmax %: corrected value calculated based on the control (HM)
[3] = stability 90 C., 20 min (V, BP, TW, BS) of hydrocodone conjugates; details: for stability 90 C., 20 min BP: BP (abbreviation not defined); for stability 90 C., 20 min BS: BS (abbreviation not defined); for stability 90 C., 20 min TW: TW (abbreviation not defined); for stability 90 C., 20 min V: V (abbreviation not defined)
[4] = Oral bioavailability of hydrocodone conjugates (plasma hydrocodone plus hydromorphone); details: oral, rats; relative to hydrocodone

Molecule: CN1CC[C@]23c4c5ccc(O)c4O[C@H]2C(OC(=O)[C@H](Cc2ccccc2)NC(=O)[C@H](Cc2ccccc2)NC(=O)[C@H](Cc2ccccc2)NC(=O)[C@H](CCC(=O)O)NC(=O)[C@@H](N)CCC(=O)O)=CC[C@H]3[C@H]1C5 [EEFFF-HM, Glu2-Phe3-Hydromorphone.Dihydrochloride] (H-EEFFF-X2)
- Oral AUC % [1]: 79%
- Oral Cmax % [1]: 78%
- IN AUC % [2]: 52%
- IN Cmax % [2]: 57%

Molecule: CC[C@H](C)[C@H](NC(=O)[C@H](CCC(=O)O)NC(=O)[C@@H](N)CCC(=O)O)C(=O)OC1=CC[C@H]2[C@H]3Cc4ccc(O)c5c4[C@@]2(CCN3C)[C@H]1O5 [EEI-HM]
- Oral AUC % [1]: 56%
- Oral Cmax % [1]: 73%
- IN AUC % [2]: 59%
- IN Cmax % [2]: 88%

Molecule: CC(C)C[C@H](NC(=O)[C@H](CCC(=O)O)NC(=O)[C@@H](N)CCC(=O)O)C(=O)OC1=CC[C@H]2[C@H]3Cc4ccc(O)c5c4[C@@]2(CCN3C)[C@H]1O5 [EEL-HM]
- Oral AUC % [1]: 27%
- Oral Cmax % [1]: 49%
- IN AUC % [2]: 84%
- IN Cmax % [2]: 98%

Molecule: CC(C)[C@H](NC(=O)[C@H](CCC(=O)O)NC(=O)[C@@H](N)CCC(=O)O)C(=O)OC1=CC[C@H]2[C@H]3Cc4ccc(O)c5c4[C@@]2(CCN3C)[C@H]1O5 [EEV-HM]
- Oral AUC % [1]: 21%
- Oral Cmax % [1]: 50%
- IN AUC % [2]: 31%
- IN Cmax % [2]: 70%

Molecule: CC[C@H](C)[C@H](NC(=O)[C@H](Cc1ccccc1)NC(=O)[C@@H](N)Cc1ccccc1)C(=O)OC1=CC[C@H]2[C@H]3Cc4ccc(O)c5c4[C@@]2(CCN3C)[C@H]1O5 [FFI-HM]
- Oral AUC % [1]: 18%
- Oral Cmax % [1]: 47%
- IN AUC % [2]: 79%
- IN Cmax % [2]: 92%

Molecule: CC(C)C[C@H](NC(=O)[C@H](Cc1ccccc1)NC(=O)[C@@H](N)Cc1ccccc1)C(=O)OC1=CC[C@H]2[C@H]3Cc4ccc(O)c5c4[C@@]2(CCN3C)[C@H]1O5 [FFL-HM]
- Oral AUC % [1]: 11%
- Oral Cmax % [1]: 24%
- IN AUC % [2]: 92%
- IN Cmax % [2]: 96%

Molecule: CC(C)[C@H](NC(=O)[C@H](Cc1ccccc1)NC(=O)[C@@H](N)Cc1ccccc1)C(=O)OC1=CC[C@H]2[C@H]3Cc4ccc(O)c5c4[C@@]2(CCN3C)[C@H]1O5 [FFV-HM]
- Oral AUC % [1]: 8%
- Oral Cmax % [1]: 36%
- IN AUC % [2]: 98%
- IN Cmax % [2]: 103%

Molecule: CC[C@H](C)[C@H](NC(=O)CNC(=O)CN)C(=O)OC1=CCC2[C@H]3Cc4ccc(O)c5c4[C@@]2(CCN3C)C1O5 (stereo partly shown) [GGI-HM]
- Oral AUC % [1]: 17%
- Oral Cmax % [1]: 32%
- IN AUC % [2]: 24%
- IN Cmax % [2]: 66%

Molecule: CC(C)C[C@H](NC(=O)CNC(=O)CN)C(=O)OC1=CCC2[C@H]3Cc4ccc(O)c5c4[C@@]2(CCN3C)C1O5 (stereo partly shown) [GGL-HM]
- Oral AUC % [1]: 22%
- Oral Cmax % [1]: 43%
- IN AUC % [2]: 52%
- IN Cmax % [2]: 85%

Molecule: CC(C)[C@H](NC(=O)CNC(=O)CN)C(=O)OC1=CCC2[C@H]3Cc4ccc(O)c5c4[C@@]2(CCN3C)C1O5 (stereo partly shown) [GGV-HM]
- Oral AUC % [1]: 53%
- Oral Cmax % [1]: 63%
- IN AUC % [2]: 51%
- IN Cmax % [2]: 73%

Molecule: CC[C@H](C)[C@H](NC(=O)CNC(=O)CN)C(=O)OC1=CCC2[C@H]3Cc4ccc(OC)c5c4[C@@]2(CCN3C)C1O5 (stereo partly drawn) [Gly-Gly-Ile-HC]
- stability 90 C., 20 min BP [3]: 100
- stability 90 C., 20 min BS [3]: 100
- stability 90 C., 20 min TW [3]: 93
- stability 90 C., 20 min V [3]: 0

Molecule: CC[C@H](C)[C@H](NC(=O)[C@H](CCCCN)NC(=O)[C@@H](N)CCCCN)C(=O)OC1=CCC2[C@H]3Cc4ccc(O)c5c4[C@@]2(CCN3C)C1O5 (stereo partly shown) [KKI-HM]
- Oral AUC % [1]: 24%
- Oral Cmax % [1]: 56%
- IN AUC % [2]: 68%
- IN Cmax % [2]: 85%

Molecule: CC(C)C[C@H](NC(=O)[C@H](CCCCN)NC(=O)[C@@H](N)CCCCN)C(=O)OC1=CCC2[C@H]3Cc4ccc(O)c5c4[C@@]2(CCN3C)C1O5 (stereo partly shown) [KKL-HM]
- Oral AUC % [1]: 24%
- Oral Cmax % [1]: 50%
- IN AUC % [2]: 87%
- IN Cmax % [2]: 96%

Molecule: CC(C)[C@H](NC(=O)[C@H](CCCCN)NC(=O)[C@@H](N)CCCCN)C(=O)OC1=CCC2[C@H]3Cc4ccc(O)c5c4[C@@]2(CCN3C)C1O5 (stereo partly shown) [KKV-HM]
- Oral AUC % [1]: 43%
- Oral Cmax % [1]: 60%
- IN AUC % [2]: 75%
- IN Cmax % [2]: 89%

Molecule: CC[C@H](C)[C@H](NC(=O)[C@@H]1CCCN1C(=O)[C@@H]1CCCN1)C(=O)OC1=CCC2[C@H]3Cc4ccc(O)c5c4[C@@]2(CCN3C)C1O5 (stereo partly shown) [PPI-HM]
- Oral AUC % [1]: 21%
- Oral Cmax % [1]: 60%
- IN AUC % [2]: 77%
- IN Cmax % [2]: 95%

Molecule: CC(C)C[C@H](NC(=O)[C@@H]1CCCN1C(=O)[C@@H]1CCCN1)C(=O)OC1=CCC2[C@H]3Cc4ccc(O)c5c4[C@@]2(CCN3C)C1O5 (stereo partly shown) [PPL-HM]
- Oral AUC % [1]: 22%
- Oral Cmax % [1]: 45%
- IN AUC % [2]: 53%
- IN Cmax % [2]: 70%

Molecule: CC(C)[C@H](NC(=O)[C@@H]1CCCN1C(=O)[C@@H]1CCCN1)C(=O)OC1=CCC2[C@H]3Cc4ccc(O)c5c4[C@@]2(CCN3C)C1O5 (stereo partly shown) [PPV-HM]
- Oral AUC % [1]: 24%
- Oral Cmax % [1]: 55%
- IN AUC % [2]: 71%
- IN Cmax % [2]: 101%

Molecule: CC[C@H](C)[C@H](NC(=O)[C@@H]1CCCN1C(=O)[C@@H]1CCCN1)C(=O)OC1=CCC2[C@H]3Cc4ccc(OC)c5c4[C@@]2(CCN3C)C1O5 (stereo partly drawn) [Pro-Pro-Ile-HC]
- stability 90 C., 20 min BP [3]: 16
- stability 90 C., 20 min BS [3]: 100
- stability 90 C., 20 min TW [3]: 70
- stability 90 C., 20 min V [3]: 0

Molecule: CC[C@H](C)[C@H](NC(=O)[C@@H]1CCCN1C(=O)[C@@H]1CCCN1C(=O)[C@H](Cc1ccc(O)cc1)NC(=O)[C@@H](N)Cc1ccc(O)cc1)C(=O)OC1=CCC2[C@H]3Cc4ccc(OC)c5c4[C@@]2(CCN3C)C1O5 (stereo partly shown) [Tyr2-Pro2-Ile-HC] (H-YYPPI-X1)
- stability 90 C., 20 min BP [3]: 100
- stability 90 C., 20 min BS [3]: 100
- stability 90 C., 20 min TW [3]: 83
- stability 90 C., 20 min V [3]: 0
- bioavailabiltty (% HC) oral AUC [4]: 218 % HC
- bioavailabiltty (% HC) oral Cmax [4]: 213 % HC

Molecule: CC[C@H](C)[C@H](NC(=O)[C@H](Cc1ccccc1)NC(=O)[C@H](Cc1ccccc1)NC(=O)[C@H](Cc1ccc(O)cc1)NC(=O)[C@@H](N)Cc1ccc(O)cc1)C(=O)OC1=CCC2[C@H]3Cc4ccc(OC(C)=O)c5c4[C@@]2(CCN3C)C1O5 (stereo partly shown) [YYFFI-HM-OAc] (H-YYFFI-X4)
- Oral AUC % [1]: 29%
- Oral Cmax % [1]: 40%
- IN AUC % [2]: 59%
- IN Cmax % [2]: 72%

Molecule: CC[C@H](C)[C@H](NC(=O)[C@H](Cc1ccccc1)NC(=O)[C@H](Cc1ccccc1)NC(=O)[C@H](Cc1ccc(O)cc1)NC(=O)[C@@H](N)Cc1ccc(O)cc1)C(=O)OC1=CCC2[C@H]3Cc4ccc(O)c5c4[C@@]2(CCN3C)C1O5 (stereo partly shown) [YYFFI-HM] (H-YYFFI-X3)
- Oral AUC % [1]: 40%
- Oral Cmax % [1]: 52%
- IN AUC % [2]: 4%
- IN Cmax % [2]: 7%

Molecule: CC[C@H](C)[C@H](NC(=O)[C@H](Cc1ccc(O)cc1)NC(=O)[C@@H](N)Cc1ccc(O)cc1)C(=O)OC1=CCC2[C@H]3Cc4ccc(O)c5c4[C@@]2(CCN3C)C1O5 (stereo partly shown) [YYI-HM]
- Oral AUC % [1]: 32%
- Oral Cmax % [1]: 66%
- IN AUC % [2]: 88%
- IN Cmax % [2]: 86%

Molecule: CC(C)C[C@H](NC(=O)[C@H](Cc1ccc(O)cc1)NC(=O)[C@@H](N)Cc1ccc(O)cc1)C(=O)OC1=CCC2[C@H]3Cc4ccc(O)c5c4[C@@]2(CCN3C)C1O5 (stereo partly shown) [YYL-HM]
- Oral AUC % [1]: 12%
- Oral Cmax % [1]: 30%
- IN AUC % [2]: 74%
- IN Cmax % [2]: 75%

Molecule: CC(C)[C@H](NC(=O)[C@H](Cc1ccc(O)cc1)NC(=O)[C@@H](N)Cc1ccc(O)cc1)C(=O)OC1=CCC2[C@H]3Cc4ccc(O)c5c4[C@@]2(CCN3C)C1O5 (stereo partly shown) [YYV-HM]
- Oral AUC % [1]: 30%
- Oral Cmax % [1]: 53%
- IN AUC % [2]: 73%
- IN Cmax % [2]: 73%

Molecule: (d)-Lys-(1)-Lys-Ile-Hydrocodone [(d)Lys(I)Lys-Ile-HC]
- stability 90 C., 20 min BP [3]: 69
- stability 90 C., 20 min BS [3]: 100
- stability 90 C., 20 min TW [3]: 74
- stability 90 C., 20 min V [3]: 0

Molecule: Gly-Gly-Leu-Hydrocodone [Gly-Gly-Leu-HC]
- stability 90 C., 20 min BP [3]: 100
- stability 90 C., 20 min BS [3]: 100
- stability 90 C., 20 min TW [3]: 85
- stability 90 C., 20 min V [3]: 1
